Assay [1] addresses LH1 αβ heterodimer (Rhodopseudomonas palustris CGA009) (UniProt Q6N9L4). Nature of the assay: cryo-EM structure; RC-LH1_(14)-W complex purified from the PufW-His strain; in IMAC buffer (20 mM tris-HCl pH 8.0, 200 mM NaCl, 0.03% β-DDM); 2.65 Å.
Assay [2] shares this target. The experiment in a line: cryo-EM structure; RC-LH1_(16) complex purified from the ΔpufW strain (no protein-W); diluted in IMAC buffer (20 mM tris-HCl pH 8.0, 200 mM NaCl, 0.03% β-DDM); 2.80 Å.

The substance “LH1 αβ heterodimer (from UniProt Q6N9L4 1-50; Q6N9L5 2-53) (complex)” registered a stoichiometry N (αβ heterodimers in the open ring) in assay [1] of 14. In assay [2], this substance came in with a stoichiometry N (αβ heterodimers in the closed ring) of 16.

Source of the values: publication PMC7806223.
